Reference: article PMC10850970, “Characterization of N-glycosylation and its functional role in SIDT1-Mediated RNA uptake”

Test: differential scanning fluorometry (Tycho)
Conditions: glycan changed form; control: SIDT1ECD expressed without kifunensine, same pH

B1: SIDT1: kifunensine, pH 5.5 (protein)
parent chain: MRGCLRLALLCALPWLLLAASPGHPAKSPRQPPAPRRDPFDAARGADFDHVYSGVVNLSTENIYSFNYTSQPDQVTAVRVYVNSSSENLNYPVLVVVRQQKEVLSWQVPLLFQGLYQRSYNYQEVSRTLCPSEATNETGPLQQLIFVDVASMAPLGAQYKLLVTKLKHFQLRTNVAFHFTASPSQPQYFLYKFPKDVDSVIIKVVSEMAYPCSVVSVQNIMCPVYDLDHNVEFNGVYQSMTKKAAITLQKKDFPGEQFFVVFVIKPEDYACGGSFFIQEKENQTWNLQRKKNLEVTIVPSIKESVYVKSSLFSVFIFLSFYLGCLLVGFVHYLRFQRKSIDGSFGSNDGSGNMVASHPIAASTPEGSNYGTIDESSSSPGRQMSSSDGGPPGQSDTDSSVEESDFDTMPDIESDKNIIRTKMFLYLSDLSRKDRRIVSKKYKIYFWNIITIAVFYALPVIQLVITYQTVVNVTGNQDICYYNFLCAHPLGVLSAFNNILSNLGHVLLGFLFLLIVLRRDILHRRALEAKDIFAVEYGIPKHFGLFYAMGIALMMEGVLSACYHVCPNYSNFQFDTSFMYMIAGLCMLKLYQTRHPDINASAYSAYASFAVVIMVTVLGVVFGKNDVWFWVIFSAIHVLASLALSTQIYYMGRFKIDLGIFRRAAMVFYTDCIQQCSRPLYMDRMVLLVVGNLVNWSFALFGLIYRPRDFASYMLGIFICNLLLYLAFYIIMKLRSSEKVLPVPLFCIVATAVMWAAALYFFFQNLSSWEGTPAESREKNRECILLDFFDDHDIWHFLSATALFFSFLVLLTLDDDLDVVRRDQIPVF
  stability_or_folding, Tm: decreases, decrease of 1.7 vs 55.1 (pH 7.5), 60.5 (pH 5.5), 61.1 (pH 3.5)

B2: SIDT1: kifunensine, pH 3.5 (protein)
parent chain: MRGCLRLALLCALPWLLLAASPGHPAKSPRQPPAPRRDPFDAARGADFDHVYSGVVNLSTENIYSFNYTSQPDQVTAVRVYVNSSSENLNYPVLVVVRQQKEVLSWQVPLLFQGLYQRSYNYQEVSRTLCPSEATNETGPLQQLIFVDVASMAPLGAQYKLLVTKLKHFQLRTNVAFHFTASPSQPQYFLYKFPKDVDSVIIKVVSEMAYPCSVVSVQNIMCPVYDLDHNVEFNGVYQSMTKKAAITLQKKDFPGEQFFVVFVIKPEDYACGGSFFIQEKENQTWNLQRKKNLEVTIVPSIKESVYVKSSLFSVFIFLSFYLGCLLVGFVHYLRFQRKSIDGSFGSNDGSGNMVASHPIAASTPEGSNYGTIDESSSSPGRQMSSSDGGPPGQSDTDSSVEESDFDTMPDIESDKNIIRTKMFLYLSDLSRKDRRIVSKKYKIYFWNIITIAVFYALPVIQLVITYQTVVNVTGNQDICYYNFLCAHPLGVLSAFNNILSNLGHVLLGFLFLLIVLRRDILHRRALEAKDIFAVEYGIPKHFGLFYAMGIALMMEGVLSACYHVCPNYSNFQFDTSFMYMIAGLCMLKLYQTRHPDINASAYSAYASFAVVIMVTVLGVVFGKNDVWFWVIFSAIHVLASLALSTQIYYMGRFKIDLGIFRRAAMVFYTDCIQQCSRPLYMDRMVLLVVGNLVNWSFALFGLIYRPRDFASYMLGIFICNLLLYLAFYIIMKLRSSEKVLPVPLFCIVATAVMWAAALYFFFQNLSSWEGTPAESREKNRECILLDFFDDHDIWHFLSATALFFSFLVLLTLDDDLDVVRRDQIPVF
  stability_or_folding, Tm: decreases, decrease of 5.4 vs 55.1 (pH 7.5), 60.5 (pH 5.5), 61.1 (pH 3.5)
